# According to the supplement of paper PMC9170038:
# Test system: MS2 coat protein
# Assay: apparent KD of MS2 coat protein; designed switch direction (-1 OFF switch, 1 ON switch): -1; higher = weaker reporter binding
# Procedure, shortened: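 Stalled E. coli RNA polymerase transcribed designed RNA switches on Illumina chips, which were then titrated with SNAP-549-labelled MS2 coat protein, doubling from 0.7 or 1.5 nM to 3 µM. Steps lasted from 0.8–1.5 h at the lowest concentration to 10–20 min at the highest. The apparent KD is each design's median over clusters of curve-fitted normalised fluorescence.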
# [1] = input ligand: microRNA oligo, concentration not stated
# [2] = Eterna round: R95, input ligand: FMN 200 uM
# [3] = Eterna round: R95, input ligand: microRNA oligo, concentration not stated
# [4] = Eterna round: R95, input ligand: none
Sequence,apparent KD of MS2 coat protein (input ligand: FMN 200 uM) [nM],apparent KD of MS2 coat protein (input ligand: none) [nM],apparent KD of MS2 coat protein [1] [nM],apparent KD of MS2 coat protein [2] [nM],apparent KD of MS2 coat protein [3] [nM],apparent KD of MS2 coat protein [4] [nM]
"AGUAUGUCAGGAUAUCUCGGGUAGUCGACAACGGCUACCGAAGAGAAGGGACAUGAGGAUCACCCAUGUACCAU [EX4 B.26] (Eterna round: R97, puzzle: Exclusion 4)",28.3,24.9,,,,
"AGUCAGGCGGUAGGAUAUCCAAAUCGAGUGACCCUCUCAUAACAUGAGGAUCACCCAUGUCGGUGGGAGAAGGGCCGUAAGGCG [Mat - Exclusion NG 2 - Mod of JL - D63] (Eterna round: R96, puzzle: Exclusion NG 2)",48.2,29.5,25.8,,,
"AGUGCGUCAGGAUAUUCUAUUAAUUACAUGAGGAUCACCCAUGUGAAUGGACAAGGGUGUGAAGAAGGGACGUGCG [Omei Ex5 A17g] (Eterna round: R97, puzzle: Exclusion 5)",360,872,,,,
"AGUGUGUGGCAGGAUAUGCAAUUAAUAGGUGAAGCAGAAGGGUCUACAUGAGGAUCACCCAUGUAUGCGGUUGA [Ex6 #23] (Eterna round: R97, puzzle: Exclusion 6)",297,68.5,,,,
"AGUGUGUGGCAGGAUAUGCGAUUUGUAAGUGUUGCAGAAGGGUCUACAUGAGGAUCACCCAUGUGUGCGGUUGA [Ex6 #13] (Eterna round: R97, puzzle: Exclusion 6)",658,516,,,,
"AGUGUGUGGCAGGAUAUGCUGUUGAUUGGUGGAGCAGAAGGGUCUACAUGAGGAUCACCCAUGUAAGCGGUUGA [Ex6 #30] (Eterna round: R97, puzzle: Exclusion 6)",125,36.5,,,,
"AGUUAGAUAGGAUAUGCCCGAGAUAACAUGAGGAUCACCCAUGUGACCGAGUCUAUUCUAGCAGAAGGGUUUAUGA [Mod of ViennaUCT 20 - Jieux - Exclusion 5] (Eterna round: R97, puzzle: Exclusion 5)",17.8,18.3,,,,
"AGUUAUGCAGGAUAUUGCGGGCCAGACAUGAGGAUCACCCAUGUGUGGGAGUCCUGCGCGCGAGAAGGGCAGACAA [EX5 B.22] (Eterna round: R97, puzzle: Exclusion 5)",28.9,20.4,,,,
"AGUUCACAUGAGGAUCACCCAUGUGAGGAUAUGGUUUCGCUGGCCGUAGCCAGUGGAACCAGAAGGCGCGUGAU [Mat - Exclusion 1 - JL Mod - D15] (Eterna round: R97, puzzle: Exclusion 1)",52.1,51,,,,
"AGUUGGCGAGGAUAUACAUGAGGAUCACCCAUGUAUGAGAUAAAAGUGAGGUAAAUAUGUAGAAGGCGCUGACA [JR_Ex3_Sub078] (Eterna round: R97, puzzle: Exclusion 3)",897,107,,,,
"AGUUGGCGAGGAUAUACAUGAGGAUCACCCAUGUGAGAGAUACUAGUGAGGUCGAUGAGUAGAAGGCGCUGACA [Mat X3R4 m18] (Eterna round: R97, puzzle: Exclusion 3)",186,142,,,,
AGUUGGCGAGGAUAUACAUGAGGAUCACCCAUGUGAGAGAUACUAGUGAGGUCGAUUGGUAGAAGGCGCUGACG [Mat - Exclusion 3 - Mod of JL D79] (puzzle: Exclusion 3),,,,222,104,151
"AGUUGGCGAGGAUAUACAUGAGGAUCACCCAUGUGGGAGAUACUAGUGAGGUCGAUUAGUAGAAGGCGCUGACA [Mat X3R4 m8] (Eterna round: R97, puzzle: Exclusion 3)",566,209,,,,
"AGUUGUGUCAAGGAUAUGCAGUCUAACGACGGAGCAGAAGGUGACACUUGAGGAUCACCCAAGUGAACCAAAAU [Bisoreis] (Eterna round: R97, puzzle: Exclusion 6)",393,57.5,,,,
"AGUUGUUCAGGAUAUGAUGUAUGUUACAUGAGGAUCACCCAUGUAGGUCCUGGAUAUGUAUCAGAAGGGAAUAUCU [JR_Ex5_Sub059] (Eterna round: R97, puzzle: Exclusion 5)",40.8,32,,,,
"AGUUGUUGUUUCCGUUCUUACAUGAGGAUCACCCAUGUUUCUUGUCGUGCUCGCGUUGCUCGUCUGACUACCUGUUG [salish99_TOv1_r3_067] (puzzle: Sensor v3, turn-off variant 1)",,,,52.5,40.3,68.1
"AGUUGUUGUUUCCGUUCUUACAUGAGGAUCACCCAUGUUUCUUGUCGUGCUCGCGUUGCUCGUCUGGCUGCCUGUUG [salish99_TOv1_r3_069] (Eterna round: R96, puzzle: Sensor v3, turn-off variant 1)",47,46.4,28,,,
"AGUUGUUGUUUCCGUUCUUACAUGAGGAUCACCCAUGUUUCUUGUCGUGCUCGCGUUGCUCGUCUGGCUGCCUGUUG [salish99_TOv1_r3_069] (puzzle: Sensor v3, turn-off variant 1)",,,,40.7,35.2,53.3
"AUAAAACAUGAGGAUCACCCAUGUGAGGAUAUACGACUCCAACCUAACAGCUUGGACCGUAGAAGGCACAAGGG [Exclusion 1 (MOD3.2 Esqu)] (Eterna round: R97, puzzle: Exclusion 1)",137,159,,,,
AUAAAAUAGGAGGAUAUCGUAUCGGAAACGAUACGAGAAGGUCUAACAUGAGGAUCACCCAUGUUCCUCAAUAA [Mat - Exclusion 6 - Eli Mod - D46] (puzzle: Exclusion 6),,,,142,36.3,37.6
AUAAACGCAGGAUAUACAUGAGGAUCACCCAUGUAAAUUUUAAAAUAAAUAAAUAGAUGUAGAAGGGCGAAAUA [Lollin - Gamma 1] (puzzle: Exclusion 3),,,,37,28.2,33.5
"AUAAAGCAAGGAUAUACAUGAGGAUCACCCAUGUAUGAAAGUUGGCCGCGGUUUAGAUGUAGAAGGUGCAAGGG [EX3 B.8] (Eterna round: R97, puzzle: Exclusion 3)",27.6,28.1,,,,
"AUAAGAAAGGCAGGAUAUUGUGCACCCUAGUGACAAGAAGGGCCAGGGUGUGCGCUCCACAUGAGGAUCACCCAUGUUAGAAAG [Berimate] (Eterna round: R96, puzzle: Exclusion NG 1)",26.4,29.3,27,,,
"AUAAGCUUUGAUAUCCUUAACAUGAGGAUCACCCAUGUUCGUCUUAUGAUGGUCUGAUCCCUGAGGAUCGGACCGUU [JL-sv1-2.06 Brourd Mod] (puzzle: Sensor v3, turn-off variant 1)",,,,34.4,88.4,33.1
"AUAAGGUCAGGAUAUGCUUGGCUGAUUCUGGUGUCCAAAUGACAUGAGGAUCACCCAUGUAGAAGGGACAUCAG [Usgeledi] (Eterna round: R97, puzzle: Exclusion 2)",16.1,15.1,,,,
